PMC5591402 (2017)
Substitutions are numbered along the chain they refer to. Where two headings read alike, the source gives them in different places. Where no end group is shown, it is not given here.

B1: N2.5 VHH (VHH)
VHH: QGQLVESGGGSVQAGGSLRLSCAASGIDSSSYCMGWFRQRPGKEREGVARINGLSGVKTAYADSVKDRFTISRDNAENTVYLQMNSLKPEDTAIYYCAAKSSPGYCGGTWFSFGYWGQGTQVTVSS
B2: TAMRA-labeled α-synuclein peptide (peptide)
peptide: GYQDYEPEA
modifications: also: TAMRA fluorophore, position not given here
B3: N2.12 reversion mutant G53 (VHH)
VHH: B1 VHH with A49G, L54W, S55G, V57I, F111S, S112N
B4: N2.17 reversion mutant S100f (VHH)
VHH: B1 VHH with L54W, S55G, F111S, S112N
B5: N2.12 reversion mutant F96 (VHH)
VHH: B1 VHH with A49G, L54W, S55R, V57I, S101F, F111S, S112N
B6: N2.12 reversion mutant S100d (VHH)
VHH: B1 VHH with A49G, L54W, S55R, V57I, T109S, F111S, S112N
B7: N2.17 reversion mutant L52b (VHH)
VHH: B1 VHH with S55G, S112N
B8: N2.12 reversion mutant A49 (VHH)
VHH: B1 VHH with L54W, S55R, V57I, F111S, S112N
B9: N2.17 reversion mutant S100d (VHH)
VHH: B1 VHH with L54W, S55G, T109S, S112N
B10: N2.17 reversion mutant F96 (VHH)
VHH: B1 VHH with L54W, S55G, S101F, S112N
B11: N2.16 VHH (VHH)
VHH: B1 VHH with A49G, L54W, F111Y, S112N
B12: N2.12 reversion mutant L52b (VHH)
VHH: B1 VHH with A49G, S55R, V57I, F111S, S112N

How the values were obtained:
Assay in all cases: FP
[1] = target: B2
N2.2 = target: N2.2
N2.13 = target: N2.13
N2.3 = target: N2.3
N2.9 = target: N2.9
N2.7 = target: N2.7
N2.15 = target: N2.15
N2.10 = target: N2.10
N2.11 = target: N2.11
N2.1 = target: N2.1
N2.8 = target: N2.8
N2.6 = target: N2.6
N2.14 = target: N2.14
N2.4 = target: N2.4
I55V/N2.12 = target: I55V/N2.12
[2] = target: B2

B1 was tested, and the Kd [1] was 55.3 nM.

For B2, the Kd (N2.2) was 23 nM, the Kd (N2.13) was 20.3 nM and the Kd (N2.3) was 11.4 nM. For the same binder, the Kd (N2.9) was 28 nM, the Kd (N2.7) was 15.1 nM and the Kd (N2.15) was 23.1 nM. For the same binder, the Kd (N2.10) was 31.6 nM, the Kd (N2.11) was 21.6 nM and the Kd (N2.1) was 14.3 nM. For the same binder, the Kd (N2.8) was 28.5 nM, the Kd (N2.6) was 25.1 nM and the Kd (N2.14) was 16.2 nM. The Kd (N2.4) was 14.3 nM and the Kd (I55V/N2.12) was 5.7 nM.

With B3 the Kd [2] was 14.1 nM.

B4 showed a Kd [2] of 11 nM.

B5 was tested, and the Kd [2] was 18.6 nM.

Work on B6 yielded a Kd [2] of 11.9 nM.

Binder B7 has a Kd [2] of 30 nM.

For B8, the Kd [2] was 8.2 nM.

Binder B9 has a Kd [2] of 27.5 nM.

Work on B10 yielded a Kd [2] of 72.2 nM.

In the case of B11, the Kd [1] is reported as 11.2 nM.

B12 was tested, and the Kd [2] was 16.9 nM.
